System: Klebsiella pneumoniae strain 3K25
Test: Example 3: experimental infection in mice, cefaclor with or without hololactoferrin
Type: in vivo, strain ICR
Settings: hololactoferrin alone 0.4 mg/mouse p.o.
Method: For ED50 values, a range of amounts of antibiotics is given in the examples (e.g., penicillin G: 0.4, 0.2, 0.1, 0.05 mg/mouse). To calculate the ED50, groups of mice in the monotherapy groups and groups of mice in the combined therapy groups received the indicated amount of antibiotic (e.g., one group received 0.4 mg/mouse of penicillin G, one group received 0.2 mg/mouse of penicillin G, one group received 0.1 mg/mouse of penicillin G, one group received 0.05 mg/mouse of penicillin G).
Sixty male mice, strain ICR, five weeks of age, weighing 21.3±1.5 g (mean±the standard deviation) were randomly allocated into ten groups (n=6), and intraperitoneally injected with Klebsiella pneumoniae strain 3K25, 1×10^6 CFU/mouse. One hour after the injection, the first group was orally given 0.2 ml of physiological saline, the second group orally given hololactoferrin (100% ferric ion saturated lactoferrin, 0.4 mg/mouse), the third through the sixth groups orally given cefaclor (2.0, 1.0, 0.5 and 0.25 mg/mouse each) in 0.2 ml of saline, and the seventh through the tenth groups orally given cefaclor (2.0, 1.0, 0.5 and 0.25 mg/mouse each) and hololactoferrin (100% iron saturated lactoferrin, 0.4 mg/mouse) in 0.2 ml of saline. The mice were fed ad libitum and observed for one week under the same conditions as described in Example 1.

B1: hololactoferrin: 100% ferric ion saturated lactoferrin (protein, UniProt P24627 20-708, looked up)
Lactotransferrin: APRKNVRWCTISQPEWFKCRRWQWRMKKLGAPSITCVRRAFALECIRAIAEKKADAVTLDGGMVFEAGRDPYKLRPVAAEIYGTKESPQTHYYAVAVVKKGSNFQLDQLQGRKSCHTGLGRSAGWIIPMGILRPYLSWTESLEPLQGAVAKFFSASCVPCIDRQAYPNLCQLCKGEGENQCACSSREPYFGYSGAFKCLQDGAGDVAFVKETTVFENLPEKADRDQYELLCLNNSRAPVDAFKECHLAQVPSHAVVARSVDGKEDLIWKLLSKAQEKFGKNKSRSFQLFGSPPGQRDLLFKDSALGFLRIPSKVDSALYLGSRYLTTLKNLRETAEEVKARYTRVVWCAVGPEEQKKCQQWSQQSGQNVTCATASTTDDCIVLVLKGEADALNLDGGYIYTAGKCGLVPVLAENRKSSKHSSLDCVLRPTEGYLAVAVVKKANEGLTWNSLKDKKSCHTAVDRTAGWNIPMGLIVNQTGSCAFDEFFSQSCAPGADPKSRLCALCAGDDQGLDKCVPNSKEKYYGYTGAFRCLAEDVGDVAFVKNDTVWENTNGESTADWAKNLNREDFRLLCLDGTRKPVTEAQSCHLAVAPNHAVVSRSDRAAHVKQVLLHQQALFGKNGKNCPDKFCLFKSETKNLLFNDNTECLAKLGGRPTYEEYLGTEYVTAIANLKKCSTSPLLEACAFLTR
modifications: 100% ferric iron saturated
notes: 100% ferric ion saturated lactoferrin
For B1, the “mortality within 24 hours” value was “died within 24 hours”.
